Data on 40 molecules can be found in US20210324028A1 (Pfizer, published 2021).

Numbering of substitutions follows the chain as printed. Names may count otherwise.

First the molecules themselves.
B1: hIL-15 V49R/D8A (ligand)
chain: NWVNVISALKKIEDLIQSMHIDATLYTESDVHPSCKVTAMKCFLLELQRISLESGDASIHDTVENLIILANNSLSSNGNVTESGCKECEELEEKNIKEFLQSFVHIVQMFINTGGGGSGHHHHHHHHGGGLNDIFEAQKIEWHE
B2: hIL-15 V49R/I68K (ligand)
chain: B1 chain with A8D, I68K
B3: hIL-15 V49R/D61N (ligand)
chain: B1 chain with A8D, D61N
B4: hIL-15 V49R/D61S (ligand)
chain: B1 chain with A8D, D61S
B5: hIL-15 V49R/I68D (ligand)
chain: B1 chain with A8D, I68D
B6: hIL-15 V49R/I68S (ligand)
chain: B1 chain with A8D, I68S
B7: hIL-15 V49R/N4K (ligand)
chain: B1 chain with N4K, A8D
B8: hIL-15 V49R/D61K (ligand)
chain: B1 chain with A8D, D61K
B9: hIL-15 V49R/N65S (ligand)
chain: B1 chain with A8D, N65S
B10: hIL-15 V49R/D8K (ligand)
chain: B1 chain with A8K
B11: hIL-15 V49R/D8N (ligand)
chain: B1 chain with A8N
B12: hIL-15 V49R/K11P (ligand)
chain: B1 chain with A8D, K11P
B13: hIL-15 V49R/N4S (ligand)
chain: B1 chain with N4S, A8D
B14: hIL-15 V49R/N4I (ligand)
chain: B1 chain with N4I, A8D
B15: hIL-15 V49R/K10P (ligand)
chain: B1 chain with A8D, K10P
B16: hIL-15 V49R/D8S (ligand)
chain: B1 chain with A8S
B17: hIL-15 V49R/N65A (ligand)
chain: B1 chain with A8D, N65A
B18: hIL-15 V49R/E64K (ligand)
chain: B1 chain with A8D, E64K
B19: hIL-15 V49R/S7T (ligand)
chain: B1 chain with S7T, A8D
B20: hIL-15 V49R/S29A (ligand)
chain: B1 chain with A8D, S29A
B21: hIL-15 V49R/Q108S (ligand)
chain: B1 chain with A8D, Q108S
B22: hIL-15 V49R/S7D (ligand)
chain: B1 chain with S7D, A8D
B23: hIL-15 V49R/S29D (ligand)
chain: B1 chain with A8D, S29D
B24: hIL-15 V49R/Q108K (ligand)
chain: B1 chain with A8D, Q108K
B25: hIL-15 V49R/S7A (ligand)
chain: B1 chain with S7A, A8D
B26: hIL-15 V49R/S29K (ligand)
chain: B1 chain with A8D, S29K
B27: hIL-15 V49R/S7R (ligand)
chain: B1 chain with S7R, A8D
B28: hIL-15 V49R/S7G (ligand)
chain: B1 chain with S7G, A8D
B29: hIL-15 V49R/N72S (ligand)
chain: B1 chain with A8D, N72S
B30: hIL-15 V49R/S7N (ligand)
chain: B1 chain with S7N, A8D
B31: hIL-15 V49R/V31D (ligand)
chain: B1 chain with A8D, V31D
B32: hIL-15 V49R/S7K (ligand)
chain: B1 chain with S7K, A8D
B33: hIL-15 V49R/V31A (ligand)
chain: B1 chain with A8D, V31A
B34: hIL-15 V49R/V31S (ligand)
chain: B1 chain with A8D, V31S
B35: hIL-15 V49R/S7H (ligand)
chain: B1 chain with S7H, A8D
B36: hIL-15 V49R/Q108D (ligand)
chain: B1 chain with A8D, Q108D
B37: hIL-15 V49R/Q108A (ligand)
chain: B1 chain with A8D, Q108A
B38: hIL-15 V49R/S29N (ligand)
chain: B1 chain with A8D, S29N
B39: hIL-15 V49R/S7E (ligand)
chain: B1 chain with S7E, A8D
B40: hIL-15 V49R/S7Q (ligand)
chain: B1 chain with S7Q, A8D

The target of the first assay is T1, human IL-2Rβ (human, UniProt P14784 27-240, limits assumed).
T1 construct: also called hIL-2Rβ; IL-2 receptor beta
T1 sequence (looked up): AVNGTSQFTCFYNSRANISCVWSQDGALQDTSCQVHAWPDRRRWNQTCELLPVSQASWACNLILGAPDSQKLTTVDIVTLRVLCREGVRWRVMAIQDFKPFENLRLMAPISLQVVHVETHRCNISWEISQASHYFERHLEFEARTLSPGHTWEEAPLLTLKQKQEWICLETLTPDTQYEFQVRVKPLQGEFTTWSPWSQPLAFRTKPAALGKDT
Nature of the assay: SPR 37C.
Take B1: the binding result is given as “no binding”. Same read-out and setting: with B2 the entry was “no binding”; with B3, “no binding”; with B4, “no binding”. As for B5, the binding result is “no binding”.

Regarding B6, the binding result is “no binding”. Still for that read-out and setting: with B7 the entry was “no binding”. The same measure, in the same setting: the same measure for B8: “no binding”; for B9: “no binding”; for B10: “no binding”. The same measure, in the same setting: the same measure for B11: “no binding”.

Regarding B12, the binding result is “no binding”. Consider B13, for which the binding result is listed as “no binding”. As to B14, the binding result was “no binding”. Turning to B15, the binding result is given as “no binding”. As for B16, the binding result is given as “no binding”. Regarding B17, the binding result was “no binding”.

Turning to B18, the binding result is “no binding”.

In the next assay the target is T2, human IL-15Rα (human, UniProt Q13261 31-205, limits assumed).
T2 construct: also called hIL-15Rα; IL-15 receptor alpha
T2 sequence (Q13261 31-205 limits assumed): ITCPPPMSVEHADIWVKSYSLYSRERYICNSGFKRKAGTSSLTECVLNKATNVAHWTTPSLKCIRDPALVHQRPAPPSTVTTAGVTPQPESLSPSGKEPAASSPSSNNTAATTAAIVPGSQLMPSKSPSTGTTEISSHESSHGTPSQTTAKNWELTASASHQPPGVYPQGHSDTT
Nature of the assay: SPR, steady state.
As a reminder, the Kd is the concentration at which binding is half-saturated. Lower therefore signals higher affinity. B1 gave a Kd of 102 nM. For B19, the Kd turned out to be 93.9 nM. The same measure, in the same setting: with B2 the figure was 94.2 nM; with B20, 154 nM; with B3, 121 nM. Regarding B21, binding was put at a Kd of 144 nM.

B22: the affinity, expressed as Kd, was 121 nM. For B4, binding was characterised by a dissociation constant (Kd) of 102 nM. Same read-out and setting: the same measure for B23: 121 nM; for B24: 85.4 nM; for B5: 106 nM.

B25 displayed a dissociation constant Kd of 84 nM. In turn, B26 returned a Kd of 261 nM. Molecule B6 came in with a dissociation constant Kd of 104 nM. B27 showed an equilibrium dissociation constant (Kd) of 77 nM. The molecule B7 yielded a dissociation constant (Kd) of 73.1 nM. On the same count and under the same terms, with B8 the figure was 116 nM; with B28, 147 nM; with B9, 158 nM. Consider B10, for which the Kd was 101 nM. On to B29, for which binding was put at a Kd of 118 nM. B30 returned an equilibrium dissociation constant (Kd) of 93.2 nM. Same read-out and setting: the same measure for B31: over 500 nM; for B32: 103 nM; for B33: 129 nM. On the same count and under the same terms, with B11 the figure was 119 nM; with B34, 265 nM.

B35 came in with an equilibrium dissociation constant (Kd) of 75.6 nM. The same measure, in the same setting: with B13 the figure was 94.7 nM; with B36, 125 nM.

B37 returned a Kd of 161 nM.

Take B38: the Kd came out at 154 nM. The same measure, in the same setting: the same measure for B39: 87.6 nM. For the molecule B40, the equilibrium dissociation constant (Kd) was found to be 88.1 nM.

For B16, the affinity, expressed as Kd, was 124 nM. Still for that read-out and setting: the same measure for B17: 202 nM; for B18: 164 nM.

Another assay concerns the target T1, human IL-2Rβ. Nature of the assay: SPR, steady state. (In general: SPR reads the build-up and loss of mass on a sensor chip optically.)
The molecule B19 displayed a Kd of over 500 nM. In turn, B20 displayed a dissociation constant (Kd) of 274 nM.

Turning to B21, the equilibrium dissociation constant (Kd) amounted to 290 nM. B22 gave a dissociation constant (Kd) of over 500 nM. On the same count and under the same terms, with B23 the figure was 238 nM; with B24, 249 nM.

Molecule B25 registered a Kd of 220 nM.

In the case of B26, binding was put at a Kd of 248 nM. As to B27, the Kd is over 500 nM.

The molecule B28 had a Kd of over 500 nM. Same read-out and setting: with B29 the figure was 182 nM; with B30, over 500 nM; with B31, over 500 nM. Molecule B32 registered a Kd of over 500 nM. Still for that read-out and setting: the same measure for B33: 269 nM; for B34: over 500 nM.

On to B35, for which the Kd worked out at 354 nM. Take B36: the affinity, expressed as Kd, was 215 nM. B37: the affinity, expressed as Kd, was 462 nM.

B38 displayed a Kd of 322 nM. Same read-out and setting: the same measure for B39: over 500 nM. Turning to B40, the Kd was determined as 215 nM.
